Assay results reported in PMC12197871 (Protein Science : A Publication of the Protein Society, 2025).

Target: GsLDH (Geobacillus stearothermophilus, UniProt P00344)
Assay: GsLDH kinetic studies
Type: biochemical

Molecule	fold higher substrate inhibition (lower K i) compared to the WT (with FBP)	k cat (with FBP (5 mM))	k cat/K m or k cat/K 0.5 (with FBP (5 mM))	k cat (without FBP)	k cat/K m or k cat/K 0.5 (without FBP)	n (Hill coefficient) (without FBP)
Gln189Leu: GsLDH single mutant Gln189Leu, located at the dimer–dimer interface (protein, UniProt P00344 1-317, looked up, variant Q189L) L-lactate dehydrogenase: MKNNGGARVVVIGAGFVGASYVFALMNQGIADEIVLIDANESKAIGDAMDFNHGKVFAPKPVDIWHGDYDDCRDADLVVICAGANQKPGETRLDLVDKNIAIFRSIVESVMASGFQGLFLVATNPVDILTYATWKFSGLPHERVIGSGTILDTARFRFLLGEYFSVAPQNVHAYIIGEHGDTELPVWSLAYIGVMPIRKLVESKGEEAQKDLERIFVNVRDAAYQIIEKKGATYYGIAMGLARVTRAILHNENAILTVSAYLDGLYGERDVYIGVPAVINRNGIREVIEIELNDDEKNRFHHSAATLKSVLARAFTR	20 fold	83 s⁻¹	106 ± 19 s⁻¹ mM⁻¹	73 ± 12 s⁻¹	32 ± 4 s⁻¹ mM⁻¹	1.4 ± 0.1
WT: wild‐type L‐lactate dehydrogenase from Geobacillus stearothermophilus (UniProt P00344), N‐terminal His‐tagged (protein, UniProt P00344 1-317, looked up, N-terminal His-tag) L-lactate dehydrogenase: MKNNGGARVVVIGAGFVGASYVFALMNQGIADEIVLIDANESKAIGDAMDFNHGKVFAPKPVDIWHGDYDDCRDADLVVICAGANQKPGETRLDLVDKNIAIFRSIVESVMASGFQGLFLVATNPVDILTYATWKFSGLPHERVIGSGTILDTARFRFLLGEYFSVAPQNVHAYIIGEHGDTELPVWSQAYIGVMPIRKLVESKGEEAQKDLERIFVNVRDAAYQIIEKKGATYYGIAMGLARVTRAILHNENAILTVSAYLDGLYGERDVYIGVPAVINRNGIREVIEIELNDDEKNRFHHSAATLKSVLARAFTR	–	64 s⁻¹	144 ± 67 s⁻¹ mM⁻¹	118 ± 34 s⁻¹	43 ± 13 s⁻¹ mM⁻¹	1.5 ± 0.1
Triple mutant: previously reported GsLDH triple mutant with substitutions Arg104Cys, Gln189Leu and Asn293Ser (protein, UniProt P00344 1-317, looked up, variant R104C Q189L N293S) L-lactate dehydrogenase: MKNNGGARVVVIGAGFVGASYVFALMNQGIADEIVLIDANESKAIGDAMDFNHGKVFAPKPVDIWHGDYDDCRDADLVVICAGANQKPGETRLDLVDKNIAIFCSIVESVMASGFQGLFLVATNPVDILTYATWKFSGLPHERVIGSGTILDTARFRFLLGEYFSVAPQNVHAYIIGEHGDTELPVWSLAYIGVMPIRKLVESKGEEAQKDLERIFVNVRDAAYQIIEKKGATYYGIAMGLARVTRAILHNENAILTVSAYLDGLYGERDVYIGVPAVINRNGIREVIEIELSDDEKNRFHHSAATLKSVLARAFTR	–	94 s⁻¹	156 ± 59 s⁻¹ mM⁻¹	57 ± 8 s⁻¹	141 ± 18 s⁻¹ mM⁻¹	–
